These results are taken from US20180155411A1.

Bounds are passed on as bounds.

Experiment [1] has as its target VP7 of rotavirus strain 116E (G9P[11]) (human rotavirus), Q99706. Nature of the experiment: cell-based or functional assay.
Experiment [2] has as its target VP4 of rotavirus strain 116E (G9P[11]) (human rotavirus), Q99706. Nature of the experiment: cell-based or functional assay.

Sequence of VP7 of rotavirus strain 116E (G9P[11]) (human rotavirus), Q99706 (Q99706 22-377): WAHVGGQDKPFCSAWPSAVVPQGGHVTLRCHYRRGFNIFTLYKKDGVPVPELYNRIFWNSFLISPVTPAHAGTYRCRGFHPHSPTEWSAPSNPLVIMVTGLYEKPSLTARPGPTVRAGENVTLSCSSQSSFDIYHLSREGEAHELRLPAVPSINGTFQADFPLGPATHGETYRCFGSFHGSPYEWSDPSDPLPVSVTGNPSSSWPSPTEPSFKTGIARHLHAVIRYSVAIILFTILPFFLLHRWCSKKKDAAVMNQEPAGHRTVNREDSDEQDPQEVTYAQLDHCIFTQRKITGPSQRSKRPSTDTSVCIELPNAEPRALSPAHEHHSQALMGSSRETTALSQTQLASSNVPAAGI
Sequence of VP4 of rotavirus strain 116E (G9P[11]) (human rotavirus), Q99706 (Q99706 22-377): as above

B1: mAb #46 (antibody, V domains shown)
VH: QVQLQESGPGLVKPSETLSLTCTVSGGSINSYYWSWIRQSPGKGLEWIGYVFYSGITKYNPSLQSRVTISLDMGKNQFSLKLTSVNAADAAVYYCARNFPSYTPDWFFDLWGRGTLVTVSS
VL: EIVLTQSPGTLSLSPGERATLSCRASQSVSSDNLAWYQQKPGQPPRLLIYGASHRATGIPDRFSGSGSGTDFTLTISRLEPEDFAVYHCQQYGSSPLTFGGGTKVEIK
In experiment [1], B1 returned an in vitro neutralization greater than 625 ng/mL.

B2: mAb #57 (antibody, V domains shown)
VH: QVQLVESGGGVVQSGRSLRLSCAASGFTFRSYAMHWVRQAPGKGLEWVADLSLDGSHKYADSVRGRFTISSDSSKNTVYLQMNSLRTEDTAIYYCARAAGIMVAGTFLTEFYFDYWGQGTLVTVSS
VL: QSVLTQPPSVSGAPGQRVTISCTGSSSNIGAGYDVHWYQQLPGTAPKLLIYGNIKRPSGVPDRFSGSKSGTSASLAITGLQTEDEADYYCQSYDSSLSAYYVFGTGTRVTVL
In the case of B2, in experiment [1], the in vitro neutralization was greater than 625 ng/mL.

B3: mAb #49 (antibody, V domains shown)
VH: DVQLVESGGGLVQPGGSVRLSCSASRFTFSNYAMYWVRQAPGKGLEYVSSISSDGGSTYYAESVKGRFTISRDNSKNTLYLQMRSLRAEDAAVYYCVTDVLRLPYSTGWSPGDFIYWGQGTLVTVSS
VL: DIQMTQSPSILYASVGDRVTITCRASQSVSSWLAWYQQKPGKVPKLLIYQASTLENGVPSRFSGSGSGTEFILTISSLQPDDFATYYCQHYNVLWTFGQGTKVEIK
As for B3, in experiment [2], the in vitro neutralization was greater than 625 ng/mL.
